Data on 5 molecules can be found in US20230056099 (published 2023).

The data set deals with thrombin (human alpha-thrombin) (UniProt P00734;P00734 P00734:328-363,P00734:364-622). Description: inhibition; 0.1 nM thrombin, 2 uM fibrinogen, absorbance 350 nm.

One may read the IC50 as the midpoint of a concentration-inhibition curve.

B1: TBA (ssDNA)
DNA: GGTTGGTGTGGTTGG
In turn, B1 showed an IC50 of 1.3 nM.

B2: TBCA (ssDNA)
DNA: ATCTCGACTAGTCATAGGGGGCGCGAACATACGCGGTTGGTGTGGTTGGCTGACAATACTCGTTTTTGGTGTCTCGGAT
modifications: circular (5' and 3' ends joined)
For the molecule B2, the IC50 was found to be 0.15 nM.

B3: D1 (ssDNA)
DNA: ATCTCGACTAGTCATAGGGGGCGCGAACATACGCGGTTGGTGTGGTTGGCTGACAATACTCGTGTCTCGGAT
modifications: circular (5' and 3' ends joined)
In turn, B3 returned an IC50 of 0.15 nM.

B4: D3 (ssDNA)
DNA: ATCTCGACTAGTCATAGGGGGCGCGAACATACGCGGTTGGTGTGGTTGGCTGACAA
modifications: circular (5' and 3' ends joined)
B4 returned an IC50 of 0.13 nM.

B5: D2 (ssDNA)
DNA: ATCTCGACTAGTCATAGGGGGCGCGAACATACGCGGTTGGTGTGGTTGGCTGACAATACTCGT
modifications: circular (5' and 3' ends joined)
The molecule B5 registered an IC50 of 0.09 nM.
